# Source: publication PMC9671113
# How the values were obtained:
# [1] = target: trimeric pre-fusion SARS-CoV-2 spike glycoprotein (pre-S) (SARS-CoV-2 (Wuhan-Hu-1 strain) | Phage T4) (UniProt P0DTC2); experiment: SEC
# [2] = target: trimeric pre-fusion SARS-CoV-2 spike glycoprotein (pre-S) (SARS-CoV-2 (Wuhan-Hu-1 strain) | Phage T4) (UniProt P0DTC2); experiment: negative-stain electron microscopy (called Cryo-EM by the paper)
substance,measurement,setting,value
trimeric pre-fusion SARS-CoV-2 spike glycoprotein (pre-S) (from UniProt P0DTC2 14-1201) (domain or fragment),stoichiometry N,[1],3
same,stoichiometry N,[2],3
